Source: patent US20260184748A1, “COMPOSITIONS COMPRISING OCTADECANEUROPEPTIDES (ODN) AND SYNTHETIC DERIVATIVES THEREOF AND METHODS OF USE FOR MODULATION OF FOOD INTAKE, OBESITY, BODY WEIGHT, NAUSEA, AND EMESIS” (The Trustees of the University of Pennsylvania, priority 2022, published 2026)
“Also recorded” adds a separate entry of the source.

Key:
[1] = target: T1, C5aR1 (Homo sapiens, UniProt P21730); experiment: Arrestin agonist mode; type: cell-based; settings: read-out: RC50 (the source's name)
T1 sequence (P21730 1-350): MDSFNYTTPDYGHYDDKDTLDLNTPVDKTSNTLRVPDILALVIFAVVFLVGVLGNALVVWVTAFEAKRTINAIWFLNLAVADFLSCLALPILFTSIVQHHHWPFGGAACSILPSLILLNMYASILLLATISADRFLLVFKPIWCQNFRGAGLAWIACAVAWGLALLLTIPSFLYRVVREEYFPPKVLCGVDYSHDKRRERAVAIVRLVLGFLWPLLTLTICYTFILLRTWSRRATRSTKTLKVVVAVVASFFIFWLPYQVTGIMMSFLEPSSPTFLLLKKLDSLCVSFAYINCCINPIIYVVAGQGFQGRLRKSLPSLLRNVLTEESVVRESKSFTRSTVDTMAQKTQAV

[2] = target: C5L2 (Homo sapiens, UniProt Q9P296); experiment: Arrestin agonist mode; type: cell-based; settings: read-out: RC50 (the source's name)
Chain of C5L2 (Q9P296 whole entry): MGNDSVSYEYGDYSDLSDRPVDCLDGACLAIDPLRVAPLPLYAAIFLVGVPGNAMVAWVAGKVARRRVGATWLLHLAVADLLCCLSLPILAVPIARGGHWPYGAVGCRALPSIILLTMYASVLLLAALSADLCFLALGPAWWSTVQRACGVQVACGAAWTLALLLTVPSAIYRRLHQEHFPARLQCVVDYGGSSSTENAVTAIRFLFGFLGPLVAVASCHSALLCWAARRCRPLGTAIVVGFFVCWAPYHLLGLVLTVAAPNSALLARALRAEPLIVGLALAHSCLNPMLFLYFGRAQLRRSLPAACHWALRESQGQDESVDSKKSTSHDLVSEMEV

[3] = Food intake and meal pattern after central injection in rats; type: in vivo, rat; settings: for food intake: 4th ventricle injection
Protocol: Rats were exposed to kaolin for at least 5 days prior to measuring kaolin consumption in pica testing. Except for studies conducted in the BioDaq, for all feeding studies rats were housed in hanging wire cages to allow for accurate measurement of food spillage.
For cannula implantation, rats were anesthetized by intraperitoneal injection of a mixture containing ketamine (90 mg/kg, Butler Animal Health Supply), xylazine (2.7 mg/kg, Anased), and acepromazine (0.64 mg/kg, Butler Animal Health Supply) (KAX) and then placed into a stereotaxic apparatus. Each rat was stereotaxically implanted with a guide cannula (26-ga, Plastics One) aimed at the fourth ventricle (guide cannula coordinates: on midline, 2.5 mm anterior to occipital suture, 5.2 mm ventral to skull; internal cannula aimed 7.2 mm ventral to skull) or the lateral ventricle (guide cannula coordinates: 1.5 mm lateral to midline, 0.9 mm posterior to bregma, 1.8 mm ventral to skull; internal cannula aimed 3.8 mm ventral to skull). For all cannulas, dummies (no projection beyond guide) were inserted in the guide cannula and left until infusions were performed. For all surgeries, rats received post-operative temperature support and analgesia was provided immediately following surgery and for two post-operative days (2 mg/kg meloxicam).

[4] = 24 h body weight change in rats; type: in vivo, rat; settings: 4th ventricle injection
[5] = Insulin tolerance test after 4th ventricle ODN; type: in vivo, rat; settings: 4th ventricle pretreatment then ODN 200 μg/2 μL; chow rats
[6] = target: T2, relaxin-3 receptor (Rattus norvegicus, UniProt Q5Y987); experiment: Central ODN antagonizes relaxin-3 induced hyperphagia; type: in vivo; settings: injection into the nucleus incertus; rats
T2 construct: expressed a high level of the relaxin-3 receptor; from tissue; host or cells: rat brain, nucleus incertus (living animal)
T2 sequence (Q5Y987 1-469): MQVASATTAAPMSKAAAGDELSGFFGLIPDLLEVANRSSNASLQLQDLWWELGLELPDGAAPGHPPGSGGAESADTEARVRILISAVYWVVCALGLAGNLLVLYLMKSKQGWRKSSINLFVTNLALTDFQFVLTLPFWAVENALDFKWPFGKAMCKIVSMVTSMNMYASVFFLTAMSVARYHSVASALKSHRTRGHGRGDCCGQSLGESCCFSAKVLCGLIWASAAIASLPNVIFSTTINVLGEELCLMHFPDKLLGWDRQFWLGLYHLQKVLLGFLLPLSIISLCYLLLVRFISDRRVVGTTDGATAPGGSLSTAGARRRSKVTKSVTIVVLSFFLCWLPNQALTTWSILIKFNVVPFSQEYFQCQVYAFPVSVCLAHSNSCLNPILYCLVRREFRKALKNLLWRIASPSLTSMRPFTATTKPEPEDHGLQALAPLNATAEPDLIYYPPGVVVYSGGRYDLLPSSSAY
Protocol: Rats were stereotaxically implanted with a bilateral guide cannula (26-ga, Plastics One) aimed at the nucleus incertus (guide cannula coordinates: ±0.5 lateral to midline, 9.5 mm […] to bregma, 5.8 mm ventral to skull; internal cannula aimed 7.8 mm ventral to skull). Recombinant human relaxin-3 was purchased (130-10, PreproTech Inc.) and ODN was synthesized by the Doyle laboratory. […] 24 h food intake was recorded in a Biodaq system (Research Diets, Inc).

[7] = target: T3, RXFP3 (Homo sapiens, UniProt Q9NSD7); experiment: Arrestin agonist mode; type: cell-based; settings: read-out: RC50 (the source's name)
T3 sequence (Q9NSD7 1-469): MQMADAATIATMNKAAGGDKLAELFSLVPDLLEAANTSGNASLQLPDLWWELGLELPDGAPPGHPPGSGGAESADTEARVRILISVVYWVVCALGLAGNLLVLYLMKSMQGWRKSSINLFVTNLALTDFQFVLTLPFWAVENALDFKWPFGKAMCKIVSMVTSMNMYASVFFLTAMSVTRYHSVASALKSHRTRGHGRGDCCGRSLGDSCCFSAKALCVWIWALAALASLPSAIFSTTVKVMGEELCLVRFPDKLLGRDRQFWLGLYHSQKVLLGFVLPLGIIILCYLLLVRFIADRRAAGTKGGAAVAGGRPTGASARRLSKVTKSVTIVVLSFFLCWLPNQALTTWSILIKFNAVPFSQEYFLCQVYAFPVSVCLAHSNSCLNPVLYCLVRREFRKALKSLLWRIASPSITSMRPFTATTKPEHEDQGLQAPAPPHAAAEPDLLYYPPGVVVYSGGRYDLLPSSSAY

[8] = target: T4, CCR4 (Homo sapiens, UniProt P51679); experiment: Arrestin agonist mode; type: cell-based; settings: read-out: RC50 (the source's name)
T4 sequence (P51679 1-360): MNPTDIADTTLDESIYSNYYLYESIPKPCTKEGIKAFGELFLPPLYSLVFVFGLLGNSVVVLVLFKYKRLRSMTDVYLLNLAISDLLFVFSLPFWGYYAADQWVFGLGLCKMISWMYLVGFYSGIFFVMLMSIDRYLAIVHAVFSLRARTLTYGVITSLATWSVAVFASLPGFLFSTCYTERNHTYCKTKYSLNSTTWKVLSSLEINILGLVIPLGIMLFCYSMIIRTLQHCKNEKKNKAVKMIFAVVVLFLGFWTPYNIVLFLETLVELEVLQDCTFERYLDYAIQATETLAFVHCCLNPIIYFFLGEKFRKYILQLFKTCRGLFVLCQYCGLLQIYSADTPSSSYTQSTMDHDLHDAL

[9] = target: CCR8 (Homo sapiens, UniProt P51685); experiment: Arrestin agonist mode; type: cell-based; settings: read-out: RC50 (the source's name)
[10] = target: CXCR6 (Homo sapiens, UniProt O00574); experiment: Arrestin agonist mode; type: cell-based; settings: read-out: RC50 (the source's name)
Chain of CXCR6 (O00574 whole entry): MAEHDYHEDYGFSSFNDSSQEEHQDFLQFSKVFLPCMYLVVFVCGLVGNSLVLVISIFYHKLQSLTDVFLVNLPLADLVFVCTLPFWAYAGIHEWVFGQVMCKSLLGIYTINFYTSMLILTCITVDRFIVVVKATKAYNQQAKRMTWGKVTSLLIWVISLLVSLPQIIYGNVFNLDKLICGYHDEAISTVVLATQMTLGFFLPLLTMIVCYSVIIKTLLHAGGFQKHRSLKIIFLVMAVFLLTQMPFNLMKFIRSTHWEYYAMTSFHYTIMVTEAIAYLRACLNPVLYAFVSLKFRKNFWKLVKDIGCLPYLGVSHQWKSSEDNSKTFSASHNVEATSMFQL

[11] = target: PROKR2 (Homo sapiens, UniProt Q8NFJ6); experiment: Arrestin agonist mode; type: cell-based; settings: read-out: RC50 (the source's name)
Chain of PROKR2 (Q8NFJ6 whole entry): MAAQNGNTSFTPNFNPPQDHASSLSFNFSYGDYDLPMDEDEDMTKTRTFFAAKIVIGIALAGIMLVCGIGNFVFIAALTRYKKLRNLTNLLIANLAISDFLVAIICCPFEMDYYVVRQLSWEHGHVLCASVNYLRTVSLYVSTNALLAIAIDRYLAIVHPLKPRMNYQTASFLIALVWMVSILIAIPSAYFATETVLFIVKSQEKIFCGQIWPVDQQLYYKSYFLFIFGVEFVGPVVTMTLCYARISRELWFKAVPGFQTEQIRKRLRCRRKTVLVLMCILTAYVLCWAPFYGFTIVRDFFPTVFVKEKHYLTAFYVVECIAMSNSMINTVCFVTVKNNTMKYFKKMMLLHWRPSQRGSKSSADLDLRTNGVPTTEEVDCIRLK

[12] = target: PROKR1 (Homo sapiens, UniProt Q8TCW9); experiment: Arrestin agonist mode; type: cell-based; settings: read-out: RC50 (the source's name)
Chain of PROKR1 (Q8TCW9 whole entry): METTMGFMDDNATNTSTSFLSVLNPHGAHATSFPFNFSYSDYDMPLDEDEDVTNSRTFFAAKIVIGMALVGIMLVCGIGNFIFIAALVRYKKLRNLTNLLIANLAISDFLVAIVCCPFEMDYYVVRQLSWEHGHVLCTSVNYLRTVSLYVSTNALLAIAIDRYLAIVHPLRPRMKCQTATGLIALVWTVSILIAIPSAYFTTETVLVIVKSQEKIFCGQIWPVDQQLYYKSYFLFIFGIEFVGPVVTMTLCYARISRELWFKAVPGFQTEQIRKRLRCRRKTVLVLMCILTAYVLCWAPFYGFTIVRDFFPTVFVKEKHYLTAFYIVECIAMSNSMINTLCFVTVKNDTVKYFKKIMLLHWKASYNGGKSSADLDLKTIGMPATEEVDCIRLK

[13] = target: T5, CCR10 (Homo sapiens, UniProt P46092); experiment: Arrestin agonist mode; type: cell-based; settings: read-out: RC50 (the source's name)
T5 sequence (P46092 1-362): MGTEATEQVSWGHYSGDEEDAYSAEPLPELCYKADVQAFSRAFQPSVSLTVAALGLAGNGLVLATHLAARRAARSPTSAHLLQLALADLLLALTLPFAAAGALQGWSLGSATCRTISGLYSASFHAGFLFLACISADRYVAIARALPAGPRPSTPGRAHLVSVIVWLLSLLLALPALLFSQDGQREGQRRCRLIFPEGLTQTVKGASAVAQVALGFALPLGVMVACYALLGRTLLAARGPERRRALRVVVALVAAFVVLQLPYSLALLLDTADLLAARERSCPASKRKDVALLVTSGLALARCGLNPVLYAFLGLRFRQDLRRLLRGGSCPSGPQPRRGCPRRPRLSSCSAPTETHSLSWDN

[14] = target: T6, CCR9 (Homo sapiens, UniProt P51686); experiment: Arrestin agonist mode; type: cell-based; settings: read-out: RC50 (the source's name)
T6 sequence (P51686 1-369): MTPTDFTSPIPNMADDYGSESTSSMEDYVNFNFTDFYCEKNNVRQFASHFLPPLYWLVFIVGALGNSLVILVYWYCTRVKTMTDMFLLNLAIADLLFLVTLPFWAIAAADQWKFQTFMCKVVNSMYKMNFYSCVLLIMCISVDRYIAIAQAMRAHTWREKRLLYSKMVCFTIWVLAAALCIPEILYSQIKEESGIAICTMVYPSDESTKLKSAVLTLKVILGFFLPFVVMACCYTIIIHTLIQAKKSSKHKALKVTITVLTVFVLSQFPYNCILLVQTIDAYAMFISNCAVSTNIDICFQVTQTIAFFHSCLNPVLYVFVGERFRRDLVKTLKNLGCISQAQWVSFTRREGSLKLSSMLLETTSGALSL

[15] = 4th ventricle, chow-maintained rats

B1: Complement C5a: control agonist (protein)
chain: TLQKKIEEIAAKYKHSVVKKCCYDGACVNNDETCEQRAARISLGPRCIKAFTECCVVASQLRANISHKDMQLGR
- EC50 [1]: 1.38 nM
- EC50 [2]: 1.57 nM

B2: recombinant DBI protein: Rat recombinant diazepam binding inhibitor (DBI) protein (LS-G136996, Lifespan Biosciences) (protein, UniProt P11030 2-87, looked up)
Acyl-CoA-binding protein: SQADFDKAAEEVKRLKTQPTDEEMLFIYSHFKQATVGDVNTDRPGLLDLKGKAKWDSWNKLKGTSKENAMKTYVEKVEELKKKYGI
- food intake ([3]; HFD-maintained rats): not high-fat diet (HFD) rats
- food intake ([3]; HFD-maintained rats, listed as DBI): did not decrease food intake in HFD-maintained rats
- food intake ([3]; chow-maintained rats): suppresses food intake in chow fed rats; also recorded: hypophagic in chow
- food intake ([3]; chow-maintained rats, listed as DBI): significantly reduced food intake at 4, 5, and 7-24 hours post injection; also recorded: decreased food intake at 4, 5, and 7-24 hours post injection
- number of bouts [3, 15]: decreased the number of bouts at 8 and 21 hours post injection
- number of meals [3, 15]: decreased the number of meals at 8-10 and 12-21 hours post injection
- time spent in bouts [3, 15]: did not alter the time spent in bouts
- time spent in meals [3, 15]: decreased the time spent in meals 8-24 hours post injection
- 24 h body weight change ([4]; HFD-maintained rats): not significantly decreased
- 24 h body weight change ([4]; chow-maintained rats): not significantly decreased

B3: Relaxin-3: Recombinant human relaxin-3 (130-10, PreproTech); control agonist of RXFP3 (protein)
chain 1: RAAPYGVRLCGREFIRAVIFTCGGSRWRRSDILAHEAMGDTFPDADADEDSLAGELDEAMGSSEWLALTKSPQAFYRGRPSWQGTPGVLRGSRDVLAGLSSSCCKWGCSKSEISSLC
chain 2: B3 chain 1
- effect of pretreatment on ODN improvement in insulin tolerance [5]: block hindbrain ODN improvements in insulin tolerance
- 24-hour food intake and body weight [6]: increased 24-hour food intake and body weight
- EC50 [7]: 11.9 nM

B4: CCL22: control agonist (protein)
chain: GPYGANMEDSVCCRDYVRYRLPLRVVKHFYWTSDSCPRPGVVLLTFRDKEICADPRVPWVKMILNKLSQ
- EC50 [8]: 3.44 nM

B5: CCL1: control agonist (protein)
chain: KSMQVPFSRCCFSFAEQEIPLRAILCYRNTSSICSNEGLIFKLKRGKEACALDTVGWVQRHRKMLRHCPSKRK
- EC50 [9]: 45.8 nM

B6: CXCL16: control agonist (protein)
chain: NEGSVTGSCYCGKRISSDSPPSVQFMNRLRKHLRAYHRCLYYTRFQLLSWSVCGGNKDPWVQELMSCLDLKECGHAYSGIVAHQKHLLP
- EC50 [10]: 6.81 nM

B7: EG VEGF: control agonist (protein)
chain: AVITGACERDVQCGAGTCCAISLWLRGLRMCTPLGREGEECHPGSHKVPFFRKRKHHTCPCLPNLLCSRFPDGRYRCSMDLKNINF
- EC50 [11]: 10.6 nM
- EC50 [12]: 17.7 nM

B8: CCL27: control agonist (protein)
chain: FLLPPSTACCTQLYRKPLSDKLLRKVIQVELQEADGDCHLQAFVLHLAQRSICIHPQNPSLSQWFEHQERKLHGTLPKLNFGMLRKMG
- EC50 [13]: 26.3 nM

B9: CCL25: control agonist (protein)
chain: QGVFEDCCLAYHYPIGWAVLRRAWTYRIQEVSGSCNLPAAIFYLPKRHRKVCGNPKSREVQRAMKLLDARNKVFAKLHHNTQTFQAGPHAVKKLSSGNSKLSSSKFSNPISSSKRNVSLLISANSGL
- EC50 [14]: 173 nM
